Experimental data reported in US20040210041A1 (published 2004).
Positions of bridges follow the written chain, without caps; N, C: chain ends.

Tests used:
[1] = molecular target: T1, KDR (VEGFR-2), full-length receptor on cells (human, UniProt P35968 20-1356); assay: cell-based or functional assay
[2] = molecular target: T1, KDR (VEGFR-2), full-length receptor on …; assay: competition with 300 pM 125I-VEGF on KDR-transfected 293H cells; peptide 0.3 µM
Method: (§1) Cells were used 24 h after transfection, and to prepare the cells for the assay, they were washed 3 times with room temperature Ml 99 medium and placed in the refrigerator. […] Each dilution was added to three separate wells of mock and KDR transfected cells. Aflter incubating at 4° C. for 2 h, the plates were washed 5 times with cold binding buffer, gently blotted dry and checked under a microscope for cell loss. 100 μL of solubilizing solution (2% Triton X-100, 10% Glycerol, 0.1% BSA) was added to each well and the plates were incubated at room temperature for 30 minutes. The solubilizing solution in each well was mixed by pipeting up and down, and transferred to 1.2 mL tubes. Each well was washed twice with 100 μL of solubilizing solution and the washes were added to the corresponding 1.2 mL tube.

[3] = molecular target: T1, KDR (VEGFR-2), full-length receptor on …; assay: competition with 300 pM 125I-VEGF on KDR-transfected 293H cells; peptide 30 µM
Method: as §1

T1 sequence (P35968 20-1356): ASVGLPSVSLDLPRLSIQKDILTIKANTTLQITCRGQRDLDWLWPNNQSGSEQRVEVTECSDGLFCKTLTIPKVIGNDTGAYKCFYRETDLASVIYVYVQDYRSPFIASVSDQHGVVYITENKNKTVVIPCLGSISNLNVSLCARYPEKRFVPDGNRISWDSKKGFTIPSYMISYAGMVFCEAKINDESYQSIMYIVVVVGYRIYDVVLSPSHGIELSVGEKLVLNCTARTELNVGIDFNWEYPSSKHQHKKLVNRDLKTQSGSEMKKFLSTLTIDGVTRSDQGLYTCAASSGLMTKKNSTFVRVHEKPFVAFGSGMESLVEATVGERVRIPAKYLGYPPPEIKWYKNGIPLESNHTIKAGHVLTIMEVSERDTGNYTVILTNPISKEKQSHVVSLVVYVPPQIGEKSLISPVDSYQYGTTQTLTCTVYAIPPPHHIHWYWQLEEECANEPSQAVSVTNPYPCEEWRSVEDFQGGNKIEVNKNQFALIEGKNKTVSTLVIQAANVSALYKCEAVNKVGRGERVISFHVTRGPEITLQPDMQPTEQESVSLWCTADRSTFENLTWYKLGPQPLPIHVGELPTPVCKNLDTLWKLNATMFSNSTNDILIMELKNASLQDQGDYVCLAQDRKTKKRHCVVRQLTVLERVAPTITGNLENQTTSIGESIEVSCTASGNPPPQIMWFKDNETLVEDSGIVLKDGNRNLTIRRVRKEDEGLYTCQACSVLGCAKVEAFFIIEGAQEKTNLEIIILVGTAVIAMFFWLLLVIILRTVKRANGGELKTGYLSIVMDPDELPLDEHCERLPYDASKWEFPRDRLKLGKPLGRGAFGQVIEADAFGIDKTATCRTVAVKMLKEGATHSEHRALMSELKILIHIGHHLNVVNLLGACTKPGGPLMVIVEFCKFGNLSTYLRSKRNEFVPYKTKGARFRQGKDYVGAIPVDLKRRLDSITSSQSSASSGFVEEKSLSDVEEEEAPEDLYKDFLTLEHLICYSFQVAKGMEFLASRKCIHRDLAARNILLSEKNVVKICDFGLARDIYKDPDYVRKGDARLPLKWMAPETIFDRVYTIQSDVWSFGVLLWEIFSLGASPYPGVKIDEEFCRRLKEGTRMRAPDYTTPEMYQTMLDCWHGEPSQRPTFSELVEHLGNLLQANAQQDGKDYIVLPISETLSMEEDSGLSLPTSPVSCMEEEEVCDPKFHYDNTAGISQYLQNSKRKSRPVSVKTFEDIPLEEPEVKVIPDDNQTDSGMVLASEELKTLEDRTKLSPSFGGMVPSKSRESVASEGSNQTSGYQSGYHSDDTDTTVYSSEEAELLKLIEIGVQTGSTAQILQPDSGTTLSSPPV

Binder	IC50, receptor activation assay [1] [nM]	inhibition of VEGF-induced KDR phosphorylation [1] [% inhibition at 10 µM]	% inhibition of 125I-labeled VEGF binding [2] [%]	% inhibition of 125I-labeled VEGF binding [3] [%]
Ac-GDSRVCWEDSWGGEVCFRYDPGGGK-NH2 (disulfide 6-16 (inferred)) [P6-D]	1000	≥ 50	52.3	96.3
Ac-AGWIECYHPDGICYHFGTGGGK-NH2 (disulfide 6-13 (inferred)) [P2-D]		≥ 50		
